US20240034783A1 (SOTIO BIOTECH A S, published 2024)
Changes are numbered by the printed parent chain.

B1: IMAB362 (antibody, human IgG1, kappa, V domains shown)
VH: QVQLQQPGAELVRPGASVKLSCKASGYTFTSYWINWVKQRPGQGLEWIGNIYPSDSYTNYNQKFKDKATLTVDKSSSTAYMQLSSPTSEDSAVYYCTRSWRGNSFDYWGQGTTLTVSS
VL: DIVMTQSPSSLTVTAGEKVTMSCKSSQSLLNSGNQKNYLTWYQQKPGQPPKLLIYWASTRESGVPDRFTGSGSGTDFTLTISSVQAEDLAVYYCQNDYSYPFTFGSGTKLEIKR
notes: Control, chimeric IgG1, synthesized from the published chains; also called Claudiximab; Zolbetuximab
B2: hCl1a (antibody, human IgG1, kappa, V domains shown)
VH: QVQLVQSGAEVKKPGASVKVSCKASGYTFTDYAMHWVRQAPGQRLEWMGWINTYTGKPTYAQKFQGRVTITRDTSASTAYMELSSLRSEDTAVYYCARAVFYGYTMDAWGQGTLVTVSS
VL: DIQMTQSPSSLSASVGDRVTITCRASEDIYSNLAWYQQKPGKAPKLLIFSVKRLQDGVPSRFSGSGSGTDFTLTISSLQPEDFATYYCLQGSNFPLTFGQGTKVEIKR
notes: Humanized
B3: hCl1j (antibody, human IgG1, kappa, V domains shown)
VH: B2 VH with H35Y, T53A, F101Y
VL: B2 VL with A25T, S50A, V51I, N93K
notes: Humanized
B4: hCl1h (antibody, human IgG1, kappa, V domains shown)
VH: B2 VH with H35Y, T53A, F101Y
VL: B2 VL with F49Y
notes: Humanized
B5: hCl1c (antibody, human IgG1, kappa, V domains shown)
VH: B2 VH with A61S
VL: B2 VL with A25T, S50A, V51I, N93K
notes: Humanized
B6: hCl1i (antibody, human IgG1, kappa, V domains shown)
VH: B2 VH with H35Y, T53A, F101Y
VL: B2 VL
notes: Humanized
B7: hCl1e (antibody, human IgG1, kappa, V domains shown)
VH: B2 VH with H35Y
VL: B2 VL
notes: Humanized
B8: hCl1g (antibody, human IgG1, kappa, V domains shown)
VH: B2 VH with T53A
VL: B2 VL with A25T, L33F, F49Y, K52N, N93K
notes: Humanized
B9: hCl1b (antibody, human IgG1, kappa, V domains shown)
VH: B2 VH with A61S
VL: B2 VL
notes: Humanized
B10: hCl1f (antibody, human IgG1, kappa, V domains shown)
VH: B2 VH with T53A
VL: B2 VL with F49Y
notes: Humanized
B11: hCl1d (antibody, human IgG1, kappa, V domains shown)
VH: B2 VH with A61S
VL: B2 VL with A25T, L33F, F49Y, K52N, N93K
notes: Humanized
B12: IMAB362 after the Asn-deamidation stress test (antibody, human IgG1, kappa, V domains shown)
VH: B1 VH
VL: B1 VL
modifications: partly deamidated Asn after 1 week at pH 8.0 and 40 °C; sites not determined (NS motif at LC CDR1 aa 31-32 named as liable); partly deamidated Asn after 1 week at pH 8.0 and 40 °C; sites not determined (NS motif at HC CDR3 aa 103-104 named as liable)
notes: also called stressed IMAB362; deamidated IMAB362
B13: cCl1-1 (antibody, V domains shown)
VH: QIQLVQSGPELKKPGESVKISCKASGYTFTDYAMHWVKQAPGKGLKWMGWINTYTGKPTYADDFKGRFVFSLEASASTANLQISNLKNEDTATYFCARAVFYGYTMDAWGQGTSVTVSS
VL: DIQMTQSPASLSASLGETISIACRASEDIYSNLAWYQQKSGKSPQLLIFSVKRLQDGVPSRFSGSGSGTQYSLKISGMQPEDEGDYFCLQGSNFPLTFGSGTKLEIK
notes: Chimeric antibody from a rat hybridoma; not built in; also called chimeric cCl1-1 antibody

Target: T1, human CLDN18.2 (human)
T1 construct: also called huCLDN18.2; hCLDN18.2
Test: ELISA on CLDN18.2-lipoparticles
Description: (§1) CLDN18.2-lipoparticles and Null-lipoparticles (without antigens) were used to coat 96-well plates at a final concentration of 10 U/ml in 100 mM sodium carbonate, pH 9.6. Upon washing with PBS/0.05% Tween-20 (PBS-T) and blocking with PBS-T/3% BSA for at least 1 h at 37° C., 1:3 serial dilutions of hCl antibodies with a starting concentration of 2 μg/ml were added and incubated for at least 1 h at 37° C.

B1 was tested, and the EC50 was 0.0515 µg/mL.

Target: T1, human CLDN18.2
Test: flow cytometry titration, PA-TU-8988S-High cells
Description: (§2) In order to have a more homogenous cell population, the cells were sorted by FACS to select only cells with a the higher CLDN18.2 expression. […] After wash in FACS buffer, the cells were incubated with the PE-labeled Fey specific IgG goat anti-human secondary antibody (eBioscience) on ice for 30 min. After wash, the stained cells were resuspended in FACS buffer, analyzed and sorted by a FACSAria™ instrument, separating medium expressing cells from high expressing cells (FIG. 2B). […] HEK293T cells overexpressing CLDN18.2 or CLDN18.1 were generated as described in Example 3 and the expression of CLDN18.2 was analyzed by flow cytometry (FIG. 3).
(§3) A PE-coupled secondary anti-human IgG antibody was added to the cells for additional 30 min at 4° C. after washes with the FC buffer, followed by further washes with FC buffer. The cells were then resuspended in 100 μl FC buffer and measured with a FACSCalibur™ cell analyzer (BD Biosciences, USA).

In order of rising EC50:
1. B1  0.508 µg/mL
2. B3  1.16 µg/mL
3. B6  1.23 µg/mL
4. B5  1.47 µg/mL
5. B4  1.75 µg/mL
6. B8  1.77 µg/mL
7. B11  1.93 µg/mL
8. B9  1.98 µg/mL
9. B10  2.14 µg/mL
10. B7  2.24 µg/mL
11. B2  2.43 µg/mL

In order of rising “Max MFI” value:
1. B1  1050 MFI
2. B5  1050 MFI
3. B8  1250 MFI
4. B11  1530 MFI
5. B10  1600 MFI
6. B2  1650 MFI
7. B3  1700 MFI
8. B9  1720 MFI
9. B7  1860 MFI
10. B4  1950 MFI
11. B6  2090 MFI

Target: T1, human CLDN18.2
Test: ELISA on CLDN18.2-lipoparticles, after Asn-deamidation stress test
Description: The stressed and non-stressed sample was stored at −80° C. Asn-deamidation and Asp-isomerization of the samples was analyzed by strong cation exchange (SCX) chromatography. Deamidation of Asn leads in a SCX chromatogram to an increase of the peak area before the main peak (bM), while Asp-isomerization leads in a SCX chromatograph to an increase of the peak area after the main peak (aM) (Du et al. 2012). SCX chromatography was performed on a MAbPac SCX-10 Column (ThermoFisher Scientific, Basel, CH), with buffer A at pH 4.0 and buffer B at pH 11.0. The flow rate was of 0.5 ml/min with a pH gradient of 30-80% buffer B. 10 μg of the sample in 20 μl of buffer A was injected into the column. Sample detection was performed by protein absorbance at 280 nm. […] NS motifs are the second most liable motifs for deamidation.
as §1

Binder B12 has an EC50 of 0.0951 µg/mL.

In the case of B12, the “fold change of EC50 against non-stressed IMAB362” value is reported as 1.8 fold.

Target: T1, human CLDN18.2
Test: flow cytometry titration, HEK293T cells overexpressing CLDN18.2
Description: as §2, §3

In order of rising EC50:
1. B1  0.388 µg/mL
2. B3  0.408 µg/mL
3. B4  0.432 µg/mL
4. B6  0.444 µg/mL
5. B11  0.541 µg/mL
6. B7  0.558 µg/mL
7. B9  0.572 µg/mL
8. B2  0.598 µg/mL
9. B8  0.678 µg/mL
10. B5  0.753 µg/mL
11. B10  0.795 µg/mL

In order of falling “Max MFI” value:
1. B6  2180 MFI
2. B4  2080 MFI
3. B1  1970 MFI
4. B7  1940 MFI
5. B2  1880 MFI
6. B9  1860 MFI
7. B3  1850 MFI
8. B10  1720 MFI
9. B11  1640 MFI
10. B8  1440 MFI
11. B5  1230 MFI

Target: T1, human CLDN18.2
Test: flow cytometry; % positive tumor cells divided by % positive healthy stomach cells
Description: (§4) Two Balb/c mice were implanted subcutaneously with 1×10⁶ A549 cells expressing CLDN18.2 in 100 μl of 50% Matrigel and tumors growth was monitored over a few weeks until the tumor reached the desired size between 150-450 mm 3. Healthy stomach tissue and tumor tissue was collected for FC analysis. The collected tissues were cut into small pieces and digested with the Miltenyi tumor dissociation kit (MACS Miltenyi Biotec, Germany). Tissue pieces were incubated with dissociation buffer (prepared according to the manufacturer instruction) in 6 well plates for 30 min in 37° C. under permanent gentle rocking motion. Samples were resuspended and strained through a 70 μm cell strainer (Corning, USA) followed by a wash with 20 ml FC buffer (PBS+2% FBS). Cell suspensions were centrifuged (5 min at 400 g for 4° C.) and the supernatants were discarded. If needed, cell suspensions were passed through a strainer and centrifuged repeatedly and pellets resuspended in 5 ml of red blood cell lysis buffer (Biolegend, USA), incubated on ice for 4 min. After incubation, 25 ml of PBS was added, and the suspensions were centrifuged again (5 min at 400 g for 4° C.). Pellets were resuspended in FC buffer (0.5-3 ml based on pellets). Equal number of cells were transferred into 96 well plates and further processed for FC analysis. The cells in the plates were washed with PBS and centrifuged (400 g for 2 min at 4° C.). […] After incubation, cells were washed twice in PBS and centrifuged (400 g for 2 min at 4° C.). Pellets were resuspended in 50 μl/well of secondary staining mix (PBS+PE-labelled anti-human antibody) (Thermo Fisher Scientific, USA), and incubated 25 min on ice. After incubation cells were washed again twice in PBS. Pellets were resuspended in 100 μl of PBS containing DAPI. Plates were kept on ice until FC analysis. For FC analysis, live cells were separated from dead cells by forward scatter and DAPI stain. Live cells were then gated for the presence of cytokeratin ([…]) and bound CLDN18.2 antibodies (PE positive cells).

In order of rising “Ratio tumor/stomach (Average)” value:
1. B1  0.88
2. B2  34.7
3. B9  53.1
4. B5  74
5. B13  74.3
6. B10  329

In order of rising “Ratio tumor/stomach (Mouse 1)” value:
1. B1  2.53
2. B2  28.3
3. B9  43
4. B13  92.5
5. B5  290
6. B10  800

In order of falling “Ratio tumor/stomach (Mouse 2)” value:
1. B10  140
2. B9  131
3. B2  60
4. B13  50
5. B5  20
6. B1  0.29

Target: T1, human CLDN18.2
Test: flow cytometry, live cells from mouse tumor of A549 cells expressing CLDN18.2, antibody 4 µg/ml
Description: as §4

In order of falling “% of positive tumor cells (Average)” value:
1. B9  30%
2. B2  26%
3. B13  26%
4. B10  23%
5. B5  18.5%

In order of falling “% of positive tumor cells (Mouse 1)” value:
1. B9  43%
2. B13  37%
3. B2  34%
4. B10  32%
5. B5  29%

In order of falling “% of positive tumor cells (Mouse 2)” value:
1. B2  18%
2. B9  17%
3. B13  15%
4. B10  14%
5. B5  8%
